Residue numbers refer to the chain shown, from its start. Where two headings read alike, the source gives them in different places.
How the values were obtained:
DENV-4 prM glycoprotein = DENV-4 prM glycoprotein (dengue type 4 virus, UniProt P09866 114-279); test: radioimmunoprecipitation of prM expressed alone by recombinant vaccinia virus
[1] = biological target: T1, dengue type 4 virus (DENV-4), strain 814669, virions (dengue type 4 virus, UniProt P09866 280-774; P09866 114-279); test: cell-based or functional assay
[2] = biological target: T1, dengue type 4 virus (DENV-4), strain …; test: ELISA, virion-coated plate, Fab from ~300 µg/ml
[3] = biological target: T2, dengue type 1 virus (DENV-1), Western Pacific strain, virions (dengue type 1 virus, UniProt P17763 281-775; P17763 115-280); test: ELISA, virion-coated plate, Fab from ~300 µg/ml
[4] = biological target: T3, dengue type 2 virus (DENV-2), prototype New Guinea C strain, virions (dengue type 2 virus, UniProt P14340 281-775; P14340 115-280); test: ELISA, virion-coated plate, Fab from ~300 µg/ml
[5] = biological target: T4, dengue type 3 virus (DENV-3), strain H87, virions (dengue type 3 virus, UniProt P27915 281-773; P27915 115-280); test: ELISA, virion-coated plate, Fab from ~300 µg/ml
[6] = biological target: T1, dengue type 4 virus (DENV-4), strain …; test: cell-based or functional assay; remark: listed apart in the source
[7] = biological target: T2, dengue type 1 virus (DENV-1), Western …; test: cell-based or functional assay
[8] = biological target: T3, dengue type 2 virus (DENV-2), prototype …; test: cell-based or functional assay
[9] = biological target: T4, dengue type 3 virus (DENV-3), strain …; test: cell-based or functional assay
[10] = biological target: T1, dengue type 4 virus (DENV-4), strain …; test: ELISA, virion-coated plate, Fab from ~140 µg/ml
[11] = biological target: T2, dengue type 1 virus (DENV-1), Western …; test: ELISA, virion-coated plate, Fab from ~140 µg/ml
[12] = biological target: T3, dengue type 2 virus (DENV-2), prototype …; test: ELISA, virion-coated plate, Fab from ~140 µg/ml
[13] = biological target: T4, dengue type 3 virus (DENV-3), strain …; test: ELISA, virion-coated plate, Fab from ~140 µg/ml
DENV-4 E glycoprotein = biological target: T5, DENV-4 E glycoprotein (dengue type 4 virus, UniProt P09866 280-774); test: radioimmunoprecipitation of E expressed alone by recombinant vaccinia virus
T5 construct: also called vDENV-4 E product

WNV/DENV-4 chimera = WNV/DENV-4 chimera (West Nile virus); test: cell-based or functional assay
[14] = biological target: T1, dengue type 4 virus (DENV-4), strain …; test: cell-based or functional assay; remark: listed apart in the source
[15] = biological target: T6, Langat virus (LGTV) strain TP 21 (Langat virus, UniProt P29837 281-776); test: cell-based or functional assay
T6 sequence: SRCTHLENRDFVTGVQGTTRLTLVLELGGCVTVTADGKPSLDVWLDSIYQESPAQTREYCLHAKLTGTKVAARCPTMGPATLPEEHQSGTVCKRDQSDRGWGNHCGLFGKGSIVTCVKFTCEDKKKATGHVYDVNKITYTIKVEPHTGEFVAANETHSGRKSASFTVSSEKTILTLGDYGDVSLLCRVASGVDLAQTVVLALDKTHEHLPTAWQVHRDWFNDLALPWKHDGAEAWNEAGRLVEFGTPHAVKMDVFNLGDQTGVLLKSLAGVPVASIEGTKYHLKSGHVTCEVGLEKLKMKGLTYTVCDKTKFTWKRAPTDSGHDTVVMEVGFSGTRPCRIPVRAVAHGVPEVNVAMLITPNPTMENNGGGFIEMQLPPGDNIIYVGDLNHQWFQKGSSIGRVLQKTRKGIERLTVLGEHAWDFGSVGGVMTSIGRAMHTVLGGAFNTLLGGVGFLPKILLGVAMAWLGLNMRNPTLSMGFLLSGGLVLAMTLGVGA

[16] = biological target: DENV-2 New Guinea B (NGB) parent virus (dengue type 2 virus); test: cell-based or functional assay
DENV-1 strain Hawaii = DENV-1 strain Hawaii (dengue type 1 virus); test: cell-based or functional assay
[17] = biological target: Japanese encephalitis virus (JEV) vaccine strain SA14-14-2 (Japanese encephalitis virus); test: cell-based or functional assay
[18] = biological target: T4, dengue type 3 virus (DENV-3), strain …; test: cell-based or functional assay; remark: listed apart in the source
[19] = biological target: T1, dengue type 4 virus (DENV-4), strain …
[20] = biological target: T2, dengue type 1 virus (DENV-1), Western …
[21] = biological target: T3, dengue type 2 virus (DENV-2), prototype …
[22] = biological target: T4, dengue type 3 virus (DENV-3), strain …

B1: chimpanzee Fab 7G4 (Fab, V domains shown)
VH: EVQLLESGGGLVQPGGSLTLSCAASGFTFSSYWMHWVRQAPGKGPEWVALIKKDGSEKYYAESVKGRFTISRDNAKNSLYLQMNSLRAEDTAVYYCTRRITTLTVISDAFDIWGQGTMVTVSS
VL: ELTQSPSTLSASVGDRVTITCRASQGISSWLAWYQQKPGKAPKFLIYKASSLESGVPSRFSGSGSGTEFTLTISSLQPDDFATYYCQQYGSYPLTFGPGTKVDIKR
binding result (DENV-4 prM glycoprotein): no binding
PRNT50 titer [1]: 121 µg/mL
ELISA titer of Fab binding [2]: 4.01 log10 of reciprocal dilution
ELISA titer of Fab binding [3]: 4.01 log10 of reciprocal dilution
ELISA titer of Fab binding [4]: 4.01 log10 of reciprocal dilution
ELISA titer of Fab binding [5]: 4.01 log10 of reciprocal dilution

B2: chimpanzee Fab 1A10 (Fab, V domains shown)
VH: VQLLEESGAEVKKPGSSVKVSCKVSGGTFSRNPISWVRQAPGQGLEWMGVIVPIVGTTKHAQKFQGRVTIIADESTSTAYMELSSLRSEDTAVYYCATYYADGSSYSEYWGQGTLVTVSS
VL: ELQMTQSPLSLSVAPGQPASISCKSSQSLLHSDGNTYLFWYLQKSGQSPQLLIYGLSNRASGVPDRFSGSGSGTDFTLKISQVEAEDVGVFYCMQGTQLPYTFGQGTKLEIKR
PRNT50 titer [6]: 12.6 µg/mL
PRNT50 titer [7]: 0.94 µg/mL
PRNT50 titer [8]: 5.26 µg/mL
PRNT50 titer [9]: 26.3 µg/mL
ELISA titer of Fab binding [10]: 3.8 log10 of reciprocal dilution
ELISA titer of Fab binding [11]: 4.1 log10 of reciprocal dilution
ELISA titer of Fab binding [12]: 3.8 log10 of reciprocal dilution
ELISA titer of Fab binding [13]: 3.6 log10 of reciprocal dilution

B3: chimpanzee Fab 1B2 (Fab, V domains shown)
VH: EVQLLESGPGLVKPSQTLSLTCAVSGGSITSDHYFWSWMRQAPGRGLEWIGYISYRGTTYYNPSLKSRVTMSVTAAKNTLYLQMDGLRPEDTAVYYCARASVTAGMPAAGTLDHWGQGTLVTVSS
VL: ELQMTQSPSSLSASVGDRVTITCRASQGISSELNWYQQKPGKAPKLLIYDASSLESGVPSRFSGSGSGTDFTLTISSLQPEDFATYYCQHFNSFPWTFGQGTKLEIKR
PRNT50 titer [6]: 29.2 µg/mL
PRNT50 titer [7]: 0.5 µg/mL
PRNT50 titer [8]: 3.13 µg/mL
PRNT50 titer [9]: > 100 µg/mL
ELISA titer of Fab binding [10]: 3.8 log10 of reciprocal dilution
ELISA titer of Fab binding [11]: 3.9 log10 of reciprocal dilution
ELISA titer of Fab binding [12]: 3.8 log10 of reciprocal dilution
ELISA titer of Fab binding [13]: 3.8 log10 of reciprocal dilution

B4: chimpanzee Fab 3C1 (Fab, V domains shown)
VH: EVQLLESGAEVKKPGGSVKVSCKVSGGTLSSYGISWVRQAPGQGPEWMGVIIPIRGTANYAQKFQGRVTYTADESTSTVYMELSSLRSEDTAVYYCATGRRGRYPTGSFDYWGQGALVTVSS
VL: ELQMTQSPSTLSASVGDRVTVTCRASEDLNKWLAWYQQKPGKAPKLLIYKASSLESGVPSRFSGSGSGTEFTLTISSLQPDDFATYYCQQYQSYPYTFGPGTKLEIKR
binding result (DENV-4 E glycoprotein): no binding
PRNT50 titer [1]: > 200 µg/mL
ELISA titer of Fab binding [2]: 3.71 log10 of reciprocal dilution
ELISA titer of Fab binding [3]: 1.3 log10 of reciprocal dilution
ELISA titer of Fab binding [4]: 3.11 log10 of reciprocal dilution
ELISA titer of Fab binding [5]: 1.3 log10 of reciprocal dilution

B5: chimpanzee Fab 2H7 (Fab, V domains shown)
VH: EVQLLESGGGLVQPGGSRRLSCAASGFTISDNVMHWVRQAPGKGLEWVALIYSADSTHYADSVKGRFTISRDNSKNTLYLQMDGLRPEDTAVYYCAREYCTGGTCFAHFDYWGQGTLVTVSS
VL: ELQMTQSPSSLSASVGDRVTITCRASQSITNYLSWYQQKPGKAPKLLISYSSTLQSGVPSRFSGSGSGTDFTLTISSLQPEDFATYYCHYGYGTHTFGPGTKVDIKR
PRNT50 titer [6]: 7.26 µg/mL
PRNT50 titer [7]: 0.26 µg/mL
PRNT50 titer [8]: 0.33 µg/mL
PRNT50 titer [9]: 5.92 µg/mL
ELISA titer of Fab binding [10]: 3.8 log10 of reciprocal dilution
ELISA titer of Fab binding [11]: 4.1 log10 of reciprocal dilution
ELISA titer of Fab binding [12]: 3.8 log10 of reciprocal dilution
ELISA titer of Fab binding [13]: 3.6 log10 of reciprocal dilution

B6: chimpanzee Fab 3A2 (Fab, V domains shown)
VH: B5 VH with E1V, V2Q, Q3L, L5E, E6Q, A24V, S56T, G84S
VL: ELTQSPSSVSASVGDTVTIACRASQSITNYLSWYQQKPGKAPKLLIYHASTLQSGIPSRFSGSGSGTDFTLTISSLQPDDFATYYCHYGYGTHTFGQGTKLEIKR
PRNT50 titer [6]: 4.71 µg/mL
PRNT50 titer [7]: 0.37 µg/mL
PRNT50 titer [8]: 1.33 µg/mL
PRNT50 titer [9]: 2.99 µg/mL
ELISA titer of Fab binding [10]: 3.8 log10 of reciprocal dilution
ELISA titer of Fab binding [11]: 4.1 log10 of reciprocal dilution
ELISA titer of Fab binding [12]: 3.8 log10 of reciprocal dilution
ELISA titer of Fab binding [13]: 3.8 log10 of reciprocal dilution

B7: humanized IgG1 1A5 (antibody, V domains shown)
VH: B5 VH with S56T, G84S, G103D, T119S
VL: ELQMTQSPSSVSASVGDTVTIACRASQSITNYLSWYQQKPGKAPKLLIYHASTLQSGIPSRFSGSGSGTDFTLTISSLQPDDFATYYCHYGYGTHTFGQGTKLEIKR
PRNT50 titer (WNV/DENV-4 chimera): ~3.8 µg/mL
PRNT50 titer [14]: 4.3 µg/mL
PRNT50 titer [15]: 28 µg/mL
PRNT50 titer [16]: 0.95 µg/mL
PRNT50 titer (DENV-1 strain Hawaii): 0.48 µg/mL
PRNT50 titer [17]: 21 µg/mL
PRNT50 titer [18]: 3.2 µg/mL
Kd [19]: 0.82 nM
Kd [20]: 0.5 nM
Kd [21]: 0.6 nM
Kd [22]: 0.67 nM

B8: chimpanzee Fab 3E4 (Fab, V domains shown)
VH: VQLLEQSGAEVKKPGGSVKVSCKVSGGTFSRNPISWVRQAPGQGLEWMSVIVPIVGTTKHAQKFQGRVTITADESTSTAYMELSSLRSEDTAVYYCATYRRYADVSSYSEYWGQGTLVTVSS
VL: ELTQSPLSLPVTLGQPASISCRSSQNLVHSDGNTYLSWIQQRPGQPPRLLIYKVSNRDSGVPDRFSGSGAGTDFTLKITRVEAEDVGLYYCVQGVQFPITFGQGTKLEIKR
PRNT50 titer [6]: 40.5 µg/mL
PRNT50 titer [7]: 42.7 µg/mL
PRNT50 titer [8]: > 100 µg/mL
PRNT50 titer [9]: > 100 µg/mL
binding result (DENV-4 prM glycoprotein): no binding
ELISA titer of Fab binding [10]: 3.8 log10 of reciprocal dilution
ELISA titer of Fab binding [11]: 4 log10 of reciprocal dilution
ELISA titer of Fab binding [12]: 3.8 log10 of reciprocal dilution
ELISA titer of Fab binding [13]: 3.6 log10 of reciprocal dilution
PRNT50 titer [1]: 91 µg/mL
ELISA titer of Fab binding [2]: 4.61 log10 of reciprocal dilution
ELISA titer of Fab binding [3]: 4.61 log10 of reciprocal dilution
ELISA titer of Fab binding [4]: 4.31 log10 of reciprocal dilution
ELISA titer of Fab binding [5]: 4.61 log10 of reciprocal dilution

Source: patent US20070134256A1 (US Dept. of Health and Human Services, published 2007)
